Measured values: patent publication US20150267232A1, “IN VIVO AND IN VITRO CARBENE INSERTION AND NITRENE TRANSFER REACTIONS CATALYZED BY HEME ENZYMES” (California Institute of Technology, priority 2012, published 2015)

B1: P450BM3: wild-type cytochrome P450BM3 from Bacillus megaterium (SEQ ID NO: 1) (protein, listed as Bacillus megaterium)
chain: TIKEMPQPKTFGELKNLPLLNTDKPVQALMKIADELGEIFKFEAPGRVTRYLSSQRLIKEACDESRFDKNLSQALKFVRDFAGDGLFTSWTHEKNWKKAHNILLPSFSQQAMKGYHAMMVDIAVQLVQKWERLNADEHIEVPEDMTRLTLDTIGLCGFNYRFNSFYRDQPHPFITSMVRALDEAMNKLQRANPDDPAYDENKRQFQEDIKVMNDLVDKIIADRKASGEQSDDLLTHMLNGKDPETGEPLDDENIRYQIITFLIAGHETTSGLLSFALYFLVKNPHVLQKAAEEAARVLVDPVPSYKQVKQLKYVGMVLNEALRLWPTAPAFSLYAKEDTVLGGEYPLEKGDELMVLIPQLHRDKTIWGDDVEEFRPERFENPSAIPQHAFKPFGNGQRACIGQQFALHEATLVLGMMLKHFDFEDHTNYELDIKETLTLKPEGFVVKAKSKKIPLGGIPSPSTEQSAKKVRKKAENAHNTPLLVLYGSNMGTAEGTARDLADIAMSKGFAPQVATLDSHAGNLPREGAVLIVTASYNGHPPDNAKQFVDWLDQASADEVKGVRYSVFGCGDKNWATTYQKVPAFIDETLAAKGAENIADRGEADASDDFEGTYEEWREHMWSDVAAYFNLDIENSEDNKSTLSLQFVDSAADMPLAKMHGAFSTNVVASKELQQPGSARSTRHLEIELPKEASYQEGDHLGVIPRNYEGIVNRVTARFGLDASQQIRLEAEEEKLAHLPLAKTVSVEELLQYVELQDPVTRTQLRAMAAKTVCPPHKVELEALLEKQAYKEQVLAKRLTMLELLEKYPACEMKFSEFIALLPSIRPRYYSISSSPRVDEKQASITVSVVSGEAWSGYGEYKGIASNYLAELQEGDTITCFISTPQSEFTLPKDPETPLIMVGPGTGVAPFRGFVQARKQLKEQGQSLGEAHLYFGCRSPHEDYLYQEELENAQSEGIITLHTAFSRMPNQPKTYVQHVMEQDGKKLIELLDQGAHFYICGDGSQMAPAVEATLMKSYADVHQVSEADARLWLQQLEEKGRYAKDVWAG
modifications: cytochrome P450NADPH-P-450 reductase precursor, cytochrome P450 (BM3), CYP102A1
B2: BM3-T268A: P450BM3 variant: T268A (protein, listed as Bacillus megaterium)
chain: TIKEMPQPKTFGELKNLPLLNTDKPVQALMKIADELGEIFKFEAPGRVTRYLSSQRLIKEACDESRFDKNLSQALKFVRDFAGDGLFTSWTHEKNWKKAHNILLPSFSQQAMKGYHAMMVDIAVQLVQKWERLNADEHIEVPEDMTRLTLDTIGLCGFNYRFNSFYRDQPHPFITSMVRALDEAMNKLQRANPDDPAYDENKRQFQEDIKVMNDLVDKIIADRKASGEQSDDLLTHMLNGKDPETGEPLDDENIRYQIITFLIAGHEATSGLLSFALYFLVKNPHVLQKAAEEAARVLVDPVPSYKQVKQLKYVGMVLNEALRLWPTAPAFSLYAKEDTVLGGEYPLEKGDELMVLIPQLHRDKTIWGDDVEEFRPERFENPSAIPQHAFKPFGNGQRACIGQQFALHEATLVLGMMLKHFDFEDHTNYELDIKETLTLKPEGFVVKAKSKKIPLGGIPSPSTEQSAKKVRKKAENAHNTPLLVLYGSNMGTAEGTARDLADIAMSKGFAPQVATLDSHAGNLPREGAVLIVTASYNGHPPDNAKQFVDWLDQASADEVKGVRYSVFGCGDKNWATTYQKVPAFIDETLAAKGAENIADRGEADASDDFEGTYEEWREHMWSDVAAYFNLDIENSEDNKSTLSLQFVDSAADMPLAKMHGAFSTNVVASKELQQPGSARSTRHLEIELPKEASYQEGDHLGVIPRNYEGIVNRVTARFGLDASQQIRLEAEEEKLAHLPLAKTVSVEELLQYVELQDPVTRTQLRAMAAKTVCPPHKVELEALLEKQAYKEQVLAKRLTMLELLEKYPACEMKFSEFIALLPSIRPRYYSISSSPRVDEKQASITVSVVSGEAWSGYGEYKGIASNYLAELQEGDTITCFISTPQSEFTLPKDPETPLIMVGPGTGVAPFRGFVQARKQLKEQGQSLGEAHLYFGCRSPHEDYLYQEELENAQSEGIITLHTAFSRMPNQPKTYVQHVMEQDGKKLIELLDQGAHFYICGDGSQMAPAVEATLMKSYADVHQVSEADARLWLQQLEEKGRYAKDVWAG
modifications: cytochrome P450NADPH-P-450 reductase precursor, cytochrome P450 (BM3), CYP102A1

How the values were obtained:
[1] = Small-scale anaerobic C—H amination with purified enzymes, azide 4; type: biochemical; conditions: free hemin, 1% loading
Protocol: (§1) Hemin also was capable of catalyzing this reaction when reduced with dithionite (Table 13).
(§2) Small scale reactions containing either 0.1% loading of ABC-CIS or ABC-T268A or 1% loading of hemin with azides 1, 4, or 6 according to standard procedures.
(§3) Small-scale reactions (400 μL) were conducted in 2 mL crimp vials (Agilent Technologies, San Diego, Calif.) containing buffer (0.1 M potassium phosphate pH 8.0), enzyme (0.1-0.5% catalyst loading) and oxygen depletion system (10× stock solution containing 14,000 U/mL catalase, 1,000 U/mL glucose oxidase dissolved in 0.1 M KPi pH 8.0). Enzyme (P450 or P411) solution and oxygen depletion mixture were added to the vial with a small stir bar before crimp-sealing. Portions of phosphate buffer (190 μL, 0.1 M, pH=8.0), glucose (40 μL, 250 mM) and NADPH (40 μL, 20 mM), or multiples thereof, were combined in a larger crimp sealed vial and degassed by sparging with argon for at least 5 min. In the meantime, the headspace of the sealed 2 mL reaction vial with the P450 solution was made anaerobic by flushing argon over the protein solution (with no bubbling). The buffer/reductant/glucose solution (270 μL) was syringed into the reaction vial with continuous argon purge of the vial headspace. An arylsulfonyl azide solution in DMSO (10 μL, 80 mM) was added to the reaction vial via a glass syringe, and the reaction was left stirring for 24 h at room temperature under positive argon pressure. Final concentrations of the reagents were typically: 2 mM arylsulfonyl azide, 2 mM NADPH, 25 mM glucose, 2 or 10 μM P450. Reactions were quenched by adding 30 μL 3 M HCl under argon. To the vials were then added acetonitrile (430 uL) and internal standard (o-toluenesulfonamide 10 mM in 50% acetonitrile 50% water, 1 mM final concentration). […] A portion (20 μL) of the supernatant was then analyzed by HPLC. […] Sultam formation was quantified comparison of integrated peak areas of internal standard and sultam at 220 nm to a calibration curve made using synthetically produced sultam and internal standard.

[2] = Small-scale anaerobic C—H amination with purified enzymes, azide 6; type: biochemical; conditions: 1% loading of hemin
Protocol: as §1, §2, §3

[3] = Whole-cell C—H amination of azide 1; type: cell-based, E. coli BL21(DE3); conditions: intact E. coli cells; for Yield sulfonamide (%) / Yield sultam (%): OD600=30, 2 mM azide 1, 24 hours; for Yield sulfonamide (%) / Yield sultam (%) / TTN: anaerobic; for TTN: added glucose
Protocol: Reaction conditions were as follows: 2 mM azide 1, 25 mM glucose, E. coli BL21(DE3) cells in M9-N minimal medium (OD600=30), 2.5% DMSO, oxygen depletion system (100 U ml^−1 glucose oxidase, 1400 U ml^−1 catalase) reacted for 24 hours under anaerobic conditions at 298 K. Yields determined by HPLC quantification.
(§4) Whole cell reactions used E. coli BL21(DE3) cells containing P450 or P411 catalysts, which were expressed and prepared as described elsewhere (Coelho, P. S. et al., Highly efficient carbene transfer to olefins catalyzed in vivo. Submitted (2013)). Following expression, cells were resuspended to an OD600 of 30 in M9 salts lacking NH4Cl (M9-N), and then degassed by sparging with argon in a sealed 6 mL crimp vial for at least 0.5 h. Separately, glucose (250 mM dissolved in 1×M9-N, 40 μL, or multiples thereof) was degassed by sparging with argon for at least five minutes. The oxygen quenching mixture was added to sealed 2 mL crimp vials containing stir bars and the headspace of the vials was purged with argon for five minutes at which time glucose, and then cells were added by syringe. Substrate (80 mM arylsulfonyl azide, 10 uL in DMSO) was added via syringe, and the reactions were stirred at room temperature for 24 h under positive argon pressure.
as §4, with “E.” for “Whole cell reactions used E.”, “catalysts” for “catalysts, which”, “Coelho,” for “(Coelho,”, “μL” for “uL”, “pressure. Reactions were quenched in a manner identical to reactions containing purified enzymes as described above. For chiral HPLC, the reactions were extracted and purified in an identical manner as for reactions that employed purified enzymes. Lyophilized intact cells containing sucrose as a cryoprotectant were prepared as described elsewhere (Coelho, P. S. et al., Highly efficient carbene transfer to olefins catalyzed in vivo. Submitted (2013)). The resulting cell powder, containing expressed ABC-CIS (26 mg) were added along with a stir bar to a 2 mL crimp vial and then sealed. The headspace of the vial was degassed, oxygen quenching system (40 μL) was added via syringe, followed by degassed glucose (250 mM, 40 μL), M9-N (310 μL), and finally substrate (80 mM 1, 10 μL). Lyophilized cell reactions were stirred for 24 h at room temperature, then quenched and analyzed as described above. […]” for “pressure.”
The preparative reaction was scaled up proportionally from small-scale reactions. E. coli BL21 cells containing ABC-CIS (OD600 30, 90 mL in M9-N) were sparged with argon for 45 minutes in a round bottom flask (250 mL) containing a stir bar. Separately, glucose solution (250 mM, 11.6 mL) was sparged with argon in a conical flask. The oxygen quenching mixture (10×, 11.6 mL) was degassed in a conical flask that was placed under high vacuum until slight foaming occurred (1-2 s) and then back-filled with argon; this sequence was repeated several times. Sparged glucose solution was then added to the anaerobic cell suspension via syringe, followed by the oxygen quenching system. Finally, substrate 1 (80 mM, 2.9 mL DMSO) was added dropwise via syringe, and the reaction was stirred for 24 h at room temperature. To quench the reaction, dilute HCl (3 M, 8.7 mL) and acetonitrile (125 mL) were added. […]

[4] = P450BM3 compilation plate screen (GC, cyclopropane peaks); type: biochemical; conditions: P450BM3 variants

Molecule	activity on substrate 4 [1]	Product (7) / TTN on substrate 6 [2]	Yield sulfonamide (%) [3]	Yield sultam (%) [3]	TTN [3]	ee (cis) ([4]; (R,S)-(S,R), chiral β-CDX GC)	de ([4]; diastereomeric excess = ([cis] − [trans])/([cis] + [trans]))	Absolute activity ([4]; sum of the area of the cyclopropane peaks over the area of the internal standard)	% ee ([3]; (S − R)/(S + R))
hemin	no measurable activity	55							
B1			33%	0.5%	5.1	7	−81	0.00224	
B2			51%	7.8%	26				84%
